The test deals with T1, HLA-A*02:01 (human).
T1 construct: captured on streptavidin plates; also called peptide-receptive MHC molecules
The experiment in a line: UV peptide exchange ELISA (anti-b2m); yield grade: + >10%, ++ >20%, +++ >50, ++++ >75%. In a few lines:
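Peptide–HLA-A*02:01 complexes were formed by UV cleavage of a photolabile ligand and exchange with the test peptide. Exchange products were diluted 100-fold, captured on streptavidin and detected with HRP-anti-β2m (TMB, 450 nm). Yield was read against refolded HLA-A*02:01/MLA-001 monomer standards (15-500 ng/ml).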
On the technique in general: In an ELISA, binding on a coated surface is turned into a signal by an enzyme label.

For the molecule ILLDRLFSV, the peptide exchange yield was more than 75%. For LLDALQHEL, the peptide exchange yield was in the range of 50 to 75%. Consider LLDAFSIKL, for which the peptide exchange yield lay in the range of 50 to 75%. Consider LLAKAVQNV, for which the peptide exchange yield was in the range of 50 to 75%. LLDMSLVKL: the peptide exchange yield was 50 to 75%. In the case of NLDATVTAL, the peptide exchange yield was in the range of 50 to 75%. NLPNTNSILGV: the peptide exchange yield lay within 50 to 75%. In the case of SLAGLVLYV, the peptide exchange yield is more than 75%.

ILDYIHNGL: the peptide exchange yield fell in the range of 50 to 75%.

In the case of NLPSELPQL, the peptide exchange yield was 50 to 75%. As for KLPGFPTQDDEV, the peptide exchange yield lay in the range of 20 to 50%.

The record behind these values is patent US20190040115A1 (IMMATICS BIOTECHNOLOGIES, published 2019).
